# The RNAGym collection of RNA variant scans (doi:10.7554/elife.90254)
# B1: LINE1-mini (parent)
# chain: GGCAGAGCUCAACACAGCGUGGCAAAGUGGCUGUGGCUAGACUGCC
# Variants of: B1
# Test: self-cleavage, relative activity (ratio to wild type); higher = more cleavage; in vitro, sequencing; the parent is a self-cleaving ribozyme
row,Variant,self-cleavage
1,C8G G40A,0.13
2,C42U C46U,0.24
3,G21U G44C,0.25
4,A26C G29C,0.37
5,U28C G40A,0.09
6,A6G A25U,0.1
7,C3G G21C,0.41
8,G2U C13A,0.06
9,G5A U32C,0.07
10,C13A C31G,0.06
11,C13A C31U,0.09
12,G17A U38G,0.04
13,A25C G27U,0.46
14,G17A C46G,0.12
15,A14C A39C,0.04
16,A25C U32C,0.25
17,C18A U38G,0.02
18,G27C U28A,0.54
19,A24C C45U,0.7
20,G5C C23G,0.04
21,C3U G36C,0.19
22,A14G U20G,0.15
23,G21C C42A,0.19
24,C31A G44C,0.04

row,Variant,self-cleavage
1,C3U C31A,0.07
2,G21A G33U,0.26
3,U28A C42G,0.02
4,G17C C46A,0.64
5,C10A U28G,0.06
6,A14G G21A,0.71
7,C15A A25C,0.04
8,A16U U34A,0.04
9,G17U A41C,0.1
10,G17A G44U,0.03
11,A25G,0.73
12,C3U G19C,0.25
13,U20G G21A,0.69
14,A11U C45G,0.04
15,A4C G44C,0.12
16,C13G U28A,0.28
17,G40A G44C,0.08
18,G17C G33A,0.06
19,G2C A4G,0.16
20,C10A C13G,0.03
21,G35U A41U,0.14
22,A14U U34A,0.82
23,C23A G29A,0.91
24,C10U G27A,0.27

row,Variant,self-cleavage
1,A12U G19C,0.32
2,C23G G44U,0.16
3,A6C G22A,0.66
4,C37G G40C,0.08
5,C10A A24G,0.06
6,G17A A39C,0.07
7,A25G A39C,0.22
8,A12G U38C,0.04
9,C10U G21C,0.19
10,G30C G35U,0.19
11,U32A C45A,0.11
12,U32A C45U,0.07
13,U9G A11U,0.03
14,G7C C10U,0.04
15,A6G G21U,0.13
16,G17U A24C,0.11
17,G17U A24G,0.09
18,A14C U32G,0.07
19,G27A G40C,0.17
20,A14C,0.12
21,G7A G21C,0.12
22,G21A G44U,0.56
23,C3G A16G,0.23
24,C18G U28C,0.36

row,Variant,self-cleavage
1,A14U G44C,0.2
2,C10G C42U,0.03
3,G44C,0.36
4,C18A A24C,0.18
5,G1U A12C,0.02
6,G5U C13G,0.23
7,A4G U32G,0.08
8,G19C U20A,0.3
9,A24G G27A,0.98
10,G1U G33C,0.03
11,G1U G33A,0.04
12,C3G G19A,0.59
13,A24U C31G,0.08
14,A11U G35C,0.01
15,C8U U32G,0.1
16,U32A G33A,0.08
17,G2U C31G,0.03
18,U20A C31G,0.08
19,G2C U32G,0.02
20,G5A G44U,0.07
21,G22A C37A,0.04
22,G2A A25C,0.62
23,C23U C37G,0.02
24,G29U C37G,0.04

row,Variant,self-cleavage
1,C8U A26C,0.21
2,G40A A41G,0.08
3,A24G G35C,0.17
4,A14U U28A,0.14
5,A12C A41C,0.02
6,G2U U9A,0.06
7,G27A G29C,0.36
8,U9C A16G,0.03
9,A16G C42U,0.09
10,A16C C45A,0.07
11,G19C A39U,0.28
12,C8A G19C,0.1
13,A16U U28G,0.22
14,C15G A24C,0.02
15,G17C G35U,0.03
16,G7U A25C,0.06
17,A26C U38A,1.02
18,A6G C15U,0.17
19,G2C C8G,0.08
20,G1C G36A,0.05
21,U9A G35C,0.08
22,G30C G33A,0.06
23,U9G G22C,0.1
24,C31A G36A,0.11

row,Variant,self-cleavage
1,C8U G22C,0.15
2,G1C A25G,0.01
3,A12C A16U,0.01
4,C15G C42U,0.04
5,G2C C3A,0.42
6,G19A U20C,0.46
7,U9G C10U,0.05
8,G1U U43A,0.05
9,C8G A16U,0.06
10,G2U G21A,0.25
11,C15G G27C,0.05
12,U28A U38G,0.01
13,C23U C45U,1.09
14,C23U C45G,0.51
15,A4U A6U,0.13
16,G7U G17U,0.12
17,C3U A6C,0.5
18,A41C C42U,0.05
19,A41C C42A,0.05
20,G19A G35A,0.18
21,A4G U20A,0.19
22,G27A C42U,0.26
23,A25C C37G,0.06
24,G22C A26G,0.87

row,Variant,self-cleavage
1,U9G A12G,0.02
2,G19C C23A,0.37
3,G1C C13G,0.04
4,C37A,0.08
5,A14U G36A,0.15
6,A6C G29C,0.36
7,C3U,0.48
8,C18U C42A,0.09
9,A14U G21U,0.74
10,C10U A16G,0.19
11,G19U A25G,0.49
12,G5U C15A,0.05
13,G2C U38G,0.03
14,A11U A16G,0.04
15,C31U G40A,0.04
16,A11C A16G,0.05
17,C13A G21U,0.23
18,C23U U34C,0.62
19,G19C G27A,0.54
20,A14U C37U,0.03
21,G1C U32C,0.03
22,C13A C42A,0.09
23,U9A A14C,0.04
